The results in this text go back to patent US20020176853A1.

The target in the assay is mouse pro-IL-1β (mouse) (UniProt P10749). Nature of the assay: cell-based or functional assay.
Sequence of UniProt P10749 (P10749 whole entry): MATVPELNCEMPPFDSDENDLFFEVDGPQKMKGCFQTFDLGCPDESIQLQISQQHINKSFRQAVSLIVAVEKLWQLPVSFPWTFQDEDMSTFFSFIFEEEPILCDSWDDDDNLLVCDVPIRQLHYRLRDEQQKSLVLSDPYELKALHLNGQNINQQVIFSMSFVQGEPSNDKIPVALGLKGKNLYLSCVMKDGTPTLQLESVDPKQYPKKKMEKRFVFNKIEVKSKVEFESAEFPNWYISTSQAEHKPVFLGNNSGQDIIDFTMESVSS

In the case of “pro-caspase-1 (full-length, wild-type) (from UniProt P29466 1-404) (enzyme)”, the secretion of mature IL-1β into the culture medium (ELISA), COS-7 cells was in the range of 80 to 250 pg/mL.
